From patent US10421817 (BEIJING MABWORKS BIOTECH, dated 2019)

T1: human Claudin 18.1 Mutant 15 (Claudin 18.1/S42A/Q45N/Q56E) (human, UniProt P56856 1-261)
T1 chain: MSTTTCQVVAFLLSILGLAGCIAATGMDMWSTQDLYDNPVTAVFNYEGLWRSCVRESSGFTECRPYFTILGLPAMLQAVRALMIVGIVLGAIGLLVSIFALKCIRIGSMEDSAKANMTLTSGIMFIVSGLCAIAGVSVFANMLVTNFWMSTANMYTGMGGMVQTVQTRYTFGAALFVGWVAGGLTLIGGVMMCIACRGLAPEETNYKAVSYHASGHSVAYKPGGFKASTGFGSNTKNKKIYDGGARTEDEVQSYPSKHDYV

T2: human Claudin 18.1 Mutant 16 (Claudin 18.1/S42A/Q45N/E47Q/Q56E) (human, UniProt P56856 1-261)
T2 chain: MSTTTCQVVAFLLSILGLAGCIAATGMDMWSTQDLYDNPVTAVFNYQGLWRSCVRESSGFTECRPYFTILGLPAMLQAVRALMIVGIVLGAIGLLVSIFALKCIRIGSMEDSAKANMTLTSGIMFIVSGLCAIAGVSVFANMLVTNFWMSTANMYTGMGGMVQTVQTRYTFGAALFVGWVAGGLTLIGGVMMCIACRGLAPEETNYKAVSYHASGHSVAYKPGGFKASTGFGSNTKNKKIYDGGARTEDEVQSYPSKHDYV


What was measured:
[1] = biological target: human Claudin 18.1 Mutant 14 (Q56E) (human, UniProt P56856 1-261); assay: FACS on HEK293A cells expressing mutant 14
[2] = biological target: T1, human Claudin 18.1 Mutant 15 (Claudin …); assay: FACS on HEK293A cells expressing mutant 15
[3] = biological target: T2, human Claudin 18.1 Mutant 16 (Claudin …); assay: FACS on HEK293A cells expressing mutant 16
human Claudin 18.1 = biological target: T3, human Claudin 18.1 (human, UniProt P56856 1-261); assay: FACS on HEK293A cells expressing human Claudin 18.1 WT
T3 construct: Overexpressed on HEK293A cells by lentivirus

| binding result [1] | binding result [2] | binding result [3] | binding result (human Claudin 18.1) | Binder |
| --- | --- | --- | --- | --- |
| binds | binds | binds | no binding | 18F2-30VH0VL0 (antibody, human IgG1, kappa, V domains shown, Humanized, human IgG1/kappa constant regions) VH: QVQLVQSGAEVKKPGASVKVSCKASGYTFTSFWLNWVRQAPGQGLEWMGNIYPSTSYTVYNQKFKDRVTMTRDTSTSTVYMELSSLRSEDTAVYYCARTWRGNSFDYWGQGTTVTVSS VL: DIVMTQSPDSLAVSLGERATINCKSSQSLLNSGNQKNYVTWYQQKPGQPPKLLIYWGSTRSTGVPDRFSGSGSGTDFTLTISSLQAEDVAVYYCQNDYTYPFTFGQGTKLEIKR |
| binds | binds | binds | no binding | 18F2-30VH7VL3 (antibody, human IgG1, kappa, V domains shown, Humanized, human IgG1/kappa constant regions) VH: QVQLVQSGAEVKKPGASVKVSCKASGYTFTSFWLNWVKQRPGQGLEWIGNIYPSTSYTVYNQKFKDKVTLTVDKSTSTAYMELSSLRSEDTAVYYCTRTWRGNSFDYWGQGTTVTVSS VL: DIVMTQSPSSLTVSLGEKATISCKSSQSLLNSGNQKNYVTWYQQKPGQPPKLLIYWGSTRSTGVPDRFSGSGSGTDFTLTISSLQAEDLAVYYCQNDYTYPFTFGSGTKLEIKR |
| binds | binds | binds | no binding | 18F2-35VH0VL0 (antibody, human IgG1, kappa, V domains shown, Humanized, human IgG1/kappa constant regions) VH: QVQLVQSGAEVKKPGASVKVSCKASGYTFTSFWLNWVRQAPGQGLEWMGNIYPSTSYTIYNQKFKDRVTMTRDTSTSTVYMELSSLRSEDTAVYYCARTWRGNSFDYWGQGTTVTVSS VL: DIVMTQSPDSLAVSLGERATINCKSSQSLLNSGNQKNYLTWYQQKPGQPPKLLIYWGSTRVRGVPDRFSGSGSGTDFTLTISSLQAEDVAVYYCQNDYTYPFTFGQGTKLEIKR |
